According to US20230181672:
Residue numbers refer to the chain shown, from its start. Numbers in names are those of the source.

T1: Cps1 (Mmut-/-;TgMCKMmut)
T1 sequence (Q8C196 39-1500, looked up): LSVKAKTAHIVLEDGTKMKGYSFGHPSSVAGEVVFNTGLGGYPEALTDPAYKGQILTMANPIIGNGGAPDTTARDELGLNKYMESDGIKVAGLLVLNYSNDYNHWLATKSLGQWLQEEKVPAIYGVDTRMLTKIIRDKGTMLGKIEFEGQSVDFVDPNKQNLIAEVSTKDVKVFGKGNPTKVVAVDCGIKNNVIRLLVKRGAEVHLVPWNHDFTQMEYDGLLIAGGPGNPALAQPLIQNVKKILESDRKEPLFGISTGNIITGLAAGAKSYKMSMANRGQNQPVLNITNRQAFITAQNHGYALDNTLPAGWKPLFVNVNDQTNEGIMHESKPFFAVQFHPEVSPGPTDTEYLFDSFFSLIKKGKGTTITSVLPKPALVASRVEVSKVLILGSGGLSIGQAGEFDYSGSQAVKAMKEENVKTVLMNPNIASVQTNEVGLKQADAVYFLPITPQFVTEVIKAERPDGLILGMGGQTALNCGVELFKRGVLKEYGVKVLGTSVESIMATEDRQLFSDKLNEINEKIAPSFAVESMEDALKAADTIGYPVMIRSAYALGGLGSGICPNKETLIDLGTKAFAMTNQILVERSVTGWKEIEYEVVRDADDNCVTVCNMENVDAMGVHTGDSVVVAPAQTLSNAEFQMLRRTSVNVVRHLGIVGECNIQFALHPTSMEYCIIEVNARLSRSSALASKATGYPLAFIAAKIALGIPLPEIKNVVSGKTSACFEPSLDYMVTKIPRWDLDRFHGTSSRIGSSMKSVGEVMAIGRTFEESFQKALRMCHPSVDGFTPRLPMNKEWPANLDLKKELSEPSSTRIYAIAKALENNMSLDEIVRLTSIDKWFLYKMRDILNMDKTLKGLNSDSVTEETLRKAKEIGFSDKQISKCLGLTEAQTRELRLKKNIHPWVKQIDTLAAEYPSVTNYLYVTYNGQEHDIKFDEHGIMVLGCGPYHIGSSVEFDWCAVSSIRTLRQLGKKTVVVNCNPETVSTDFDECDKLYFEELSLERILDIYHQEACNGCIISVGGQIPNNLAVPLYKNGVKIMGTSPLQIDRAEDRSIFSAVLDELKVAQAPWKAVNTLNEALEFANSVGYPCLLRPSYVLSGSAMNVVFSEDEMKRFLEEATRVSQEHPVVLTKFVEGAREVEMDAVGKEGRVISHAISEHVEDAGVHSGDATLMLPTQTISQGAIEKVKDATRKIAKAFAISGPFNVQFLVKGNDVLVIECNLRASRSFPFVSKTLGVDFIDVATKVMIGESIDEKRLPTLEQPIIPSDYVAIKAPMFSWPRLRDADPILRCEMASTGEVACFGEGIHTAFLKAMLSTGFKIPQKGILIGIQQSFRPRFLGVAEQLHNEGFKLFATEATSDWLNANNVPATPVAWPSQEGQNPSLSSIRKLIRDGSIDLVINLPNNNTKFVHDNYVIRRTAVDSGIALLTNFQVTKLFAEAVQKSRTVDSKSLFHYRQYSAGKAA

B1: methylmalonylated K4R mutated SIRT5-FLAG (protein)
chain: SSSMADFRKFFAKAKHIVIISGAGVSAESGVPTFRGAGGYWRRWQAQDLATPLAFAHNPSRVWEFYHYRREVMGSREPNAGHRAIAECETRLGKQGRRVVVITQNIDELHRRAGTRNLLEIHGSLFKTRCTSCGVVAENYKSPICPALSGKGAPEPGTQDASIPVEKLPRCEEAGCGGLLRPHVVWFGENLDPAILEEVDRELAHCDLCLVVGTSSVVYPAAMFAPQVAARGVPVAEFNTETTPATNRFRFHFQGPCGTTLPEALACHENETVSEFGGDYKDDDDK
B2: FLAG-SIRT1 (Addgene, 1791) (protein)
chain: MADEAALALQPGGSPSAAGADREAASSPAGEPLRKRPRRDGPGLERSPGEPGGAAPEREVPAAARGCPGAAAAALWREAEAEAAAAGGEQEAQATAAAGEGDNGPGLQGPSREPPLADNLYDEDDDDEGEEEEEAAAAAIGYRDNLLFGDEIITNGFHSCESDEEDRASHASSSDWTPRPRIGPYTFVQQHLMIGTDPRTILKDLLPETIPPPELDDMTLWQIVINILSEPPKRKKRKDINTIEDAVKLLQECKKIIVLTGAGVSVSCGIPDFRSRDGIYARLAVDFPDLPDPQAMFDIEYFRKDPRPFFKFAKEIYPGQFQPSLCHKFIALSDKEGKLLRNYTQNIDTLEQVAGIQRIIQCHGSFATASCLICKYKVDCEAVRGDIFNQVVPRCPRCPADEPLAIMKPEIVFFGENLPEQFHRAMKYDKDEVDLLIVIGSSLKVRPVALIPSSIPHEVPQILINREPLPHLHFDVELLGDCDVIINELCHRLGGEYAKLCCNPVKLSEITEKPPRTQKELAYLSELPPTPLHVSEDSSSPERTSPPDSSVIVTLLDQAAKSNDDLDVSESKGCMEEKPQEVQTSRNVESIAEQMENPDLKNVGSSTGEKNERTSVAGTVRKCWPNRVAKEQISRRLDGNQYLFLPPNRYIFHGAEVYSDSEDDVLSSSSCGSNSDSGTCQSPSLEEPMEDESEIEEFYNGLEDEPDVPERAGGAGFGTDGDDQEAINEAISVKQEVTDMNYPSNKS
B3: SIRT5-FLAG (Addgene, 13816) (protein)
chain: B1 chain with R43K, R76K, R112K, R116K
B4: propionylated SIRT5-FLAG (protein)
chain: B1 chain with R43K, R76K, R112K, R116K
B5: K4R mutated SIRT5-FLAG (protein)
chain: B1 chain

Assays:
[1] = biological target: methylmalonylated BSA, P02769
methylmalonylated BSA, P02769, sequence (P02769 25-607): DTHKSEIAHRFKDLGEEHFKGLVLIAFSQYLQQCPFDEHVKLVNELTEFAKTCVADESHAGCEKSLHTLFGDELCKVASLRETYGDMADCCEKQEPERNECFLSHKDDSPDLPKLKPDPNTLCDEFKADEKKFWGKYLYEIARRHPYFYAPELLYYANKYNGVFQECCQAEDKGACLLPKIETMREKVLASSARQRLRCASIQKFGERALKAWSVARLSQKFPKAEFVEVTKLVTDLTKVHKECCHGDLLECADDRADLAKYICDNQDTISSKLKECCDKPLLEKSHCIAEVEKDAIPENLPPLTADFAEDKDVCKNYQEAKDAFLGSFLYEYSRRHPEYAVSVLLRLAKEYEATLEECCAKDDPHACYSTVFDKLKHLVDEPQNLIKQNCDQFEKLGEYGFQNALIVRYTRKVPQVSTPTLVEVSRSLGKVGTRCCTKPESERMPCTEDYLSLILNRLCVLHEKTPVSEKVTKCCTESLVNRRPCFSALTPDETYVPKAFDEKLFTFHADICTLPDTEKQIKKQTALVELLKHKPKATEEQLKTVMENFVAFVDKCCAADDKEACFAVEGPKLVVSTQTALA

[2] = biological target: propionylated BSA, P02769
propionylated BSA, P02769, sequence (P02769 25-607): as above

Cps1 (Mmut-/-;TgMCKMmut) = biological target: T1, Cps1 (Mmut-/-;TgMCKMmut)

| Protein | removal of methylmalonylation from methylmalonylated BSA (in vitro deacylation assay, Western blot) [1] | depropionylation of propionylated BSA (in vitro deacylation assay, Western blot) [2] | stated: methylmalonylation of immunoprecipitated Cps1 reduced (AP42053 immunoblot) (Cps1 (Mmut-/-;TgMCKMmut)) |
| --- | --- | --- | --- |
| B1 | SIRT5 K4R did not exhibit enzymatic inhibition after hyper-methylmalonylation/acylation modifications | – | – |
| B2 | SIRT1 (FIG. 13A) and SIRT5 (FIG. 13B) were the most effective at removing methylmalonylation from the methylmalonylated BSA substrates | – | – |
| B3 | – | SIRT5 mediates the depropionylation of BSA substrate | – |
| B4 | – | this activity is impaired when SIRT5 is propionylated | – |
| B5 | mutant SIRT5 K4R had the ability to remove methylmalonylation from BSA regardless of whether SIRT5 K4R was acylated or not | – | AP42053 bands at about 150 kDa are faint in the 2 SuperSIRT5-AAV Mmut-/- lanes and clear in the 2 GFP-AAV Mmut-/- lanes, with like Cps1 bands; the FLAG blot of the extracts shows SuperSIRT5-FLAG below 37 kDa only in the SuperSIRT5-AAV lanes |
